Measurements: patent US20150252107A1, “APLNR Modulators and Uses Thereof” (Regeneron Pharmaceuticals, Inc., priority 2013, published 2015)

T1: hAPLNR (Homo sapiens, UniProt P35414)
T1 construct: expressed in transfected cells
T1 sequence (P35414 1-380): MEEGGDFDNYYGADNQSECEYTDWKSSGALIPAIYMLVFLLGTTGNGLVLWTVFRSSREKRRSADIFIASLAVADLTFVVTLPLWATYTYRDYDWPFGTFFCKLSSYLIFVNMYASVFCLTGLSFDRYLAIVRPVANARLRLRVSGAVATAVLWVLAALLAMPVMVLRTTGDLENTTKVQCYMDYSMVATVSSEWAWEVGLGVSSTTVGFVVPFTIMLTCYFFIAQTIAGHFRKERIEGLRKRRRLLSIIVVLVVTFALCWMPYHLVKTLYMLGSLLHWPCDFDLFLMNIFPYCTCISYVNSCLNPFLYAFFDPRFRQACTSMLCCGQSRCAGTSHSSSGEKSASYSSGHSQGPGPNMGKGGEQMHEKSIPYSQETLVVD


Tests used:
hAPLNR [1] = biological target: T1, hAPLNR; test: CRE assay of modified apelin peptides in HEK293/CRE-luc/hAPLNR cells; type: cell-based; conditions: Table 9; 5 μM forskolin
Protocol: After 5 hours of incubation at 37° C. in 5% CO2, luminescence was measured following the addition of One Glo reagent (Promega, #E6051) using a Victor X instrument (Perkin Elmer). The data were fit by nonlinear regression to a 4-parameter logistic equation with Prism 5 software (GraphPad).

HEK293 parental cells = test: FACS binding to HEK293 parental cells; conditions: 10 μg/mL antibody
Protocol: Binding ratios for human APLNR binding to purified anti-APLNR monoclonal antibodies were determined by a fluorescence-activated cell sorting (FACS) binding assay. […] The resulting stable cell lines, HEK293/CRE-luc/hAPLNR and HEK293/CRE-luc/MfAPLNR, were maintained in DMEM containing 10% FBS, NEAA, and penicillin/streptomycin with either 100 μg/mL Hygromycin B for hAPLNR cells or 500 μg/mL G418 for MfAPLNR cells.
For the FACS analysis, HEK293 parental, HEK293/CRE-luc/hAPLNR, and, HEK293/CRE-luc/mfAPLNR cells were dissociated using Enzyme Free Dissociation reagent (#S-004, Millipore, Billerica, Mass., USA) and 10^6 cells/well were plated onto 96-well v-bottom plates in PBS containing 1% FBS. […] Cells were then filtered and analyzed on Accuri Flow Cytometer (BD Biosciences, San Jose, Calif., USA). Unstained and secondary antibody alone controls were also tested for binding to all cell lines. […] Geometric mean (Geom. mean) of fluorescence for each antibody was then normalized to geometric mean of unstained cells to obtain relative binding of antibody (binding ratios) per each cell type: HEK293 (parental), HEK293/CRE-luc/hAPLNR and HEK293/CRE-luc/MfAPLNR.

hAPLNR [2] = biological target: T1, hAPLNR; test: cyclic AMP (CRE-luciferase) assay, activation of hAPLNR in HEK293/CRE-luc/hAPLNR cells; type: cell-based; conditions: without Apelin; for % Activation at 100 nM mAb (at 10 uM Forskolin) / % Activation at 100 nM mAb (at 5 uM Forskolin): Table 6A, % of maximum Apelin activation
Protocol: The ability of anti-APLNR antibodies to activate hAPLNR-mediated cell signaling was measured using a cyclic AMP assay. The hAPLNR is a 7-transmembrane G-protein coupled receptor (GPCR).
(§1) The resulting cell line, HEK293/CRE-luc/hAPLNR, was maintained in DMEM containing 10% FBS, NEAA, penicillin/streptomycin, and 100 μg/mL Hygromycin B.
(§2) Testing of antibodies included a no antibody control.
(§3) The results of all assays were analyzed using nonlinear regression (4-parameter logistics) within Prism 5 software (GraphPad).

hAPLNR [3] = biological target: T1, hAPLNR; test: cyclic AMP (CRE-luciferase) assay, inhibition of hAPLNR in the presence of 100 pM Apelin; type: cell-based; conditions: Tables 6C and 6D
Protocol: as §1, §2, §3

| Molecule | Binding Ratio of Geom. Mean to Unstained Cells, HEK293 Parental (HEK293 parental cells) | % Activation at 100 nM mAb (at 10 uM Forskolin) (hAPLNR [2]) | % Activation at 100 nM mAb (at 5 uM Forskolin) (hAPLNR [2]) | inhibition (maximum blockade) of 100ρM Apelin activation (hAPLNR [3]) | also measured |
| --- | --- | --- | --- | --- | --- |
| CSCC[C@H](NC(=O)[C@@H]1CCCN1C(=O)CNC(=O)[C@H](CCCCN)NC(=O)[C@H](Cc1c[nH]cn1)NC(=O)[C@H](CO)NC(=O)[C@H](CC(C)C)NC(=O)[C@H](CCCNC(=N)N)NC(=O)[C@@H]1CCCN1)C(=O)N1CCC[C@H]1C(=O)N[C@@H](Cc1ccccc1)C(=O)O [Apelin-11, reference compound] | – | – | – | – | EC50 (hAPLNR [1]): 0.438 nM |
| H2aM9227N: anti-APLNR antibody, HCVR/LCVR SEQ ID NOs 50/58, mouse IgG2a Fc (antibody, V domains shown, mouse IgG2a Fc) VH: EVQLVESGGGLVQPGGSLRLSCAASGFTFSSFWMSWVRQVPGKGLEWVANIKQDGSEKYYVDSVKGRFTISRDNAKNSLYLQMNSLRAEDTAVYYCARDRFGYSFYDKGVRYYYGMDVWGQGTTVTVSS VL: DIQMTQSPSSLSVSVGDRVTITCRASQGIRNDLGWYQQKPGKAPKRLIYATSSLQSGVPSRFSGSGSGTEFTLTISGLQPEDFATYYCLQHNSYPRTFGQGTKVEIK | 4 | 12% | – | – | activation of hAPLNR, % of maximum Apelin activation at 100 nM, the highest antibody dose tested (hAPLNR [2]; text on Table 6A): 12% |
| H2aM9222N: anti-APLNR antibody, HCVR/LCVR SEQ ID NOs 34/42, mouse IgG2a Fc (antibody, V domains shown, mouse IgG2a Fc) VH: EVQLVESGGGLVQPGGSLRLSCAASGFTFSNYWMSWVRQAPGKGLEWVANIKQDGSERYYVGSVKGRFTISRGDAENSLYLQMNSLRAEDTAVYYCARDRFGYSAYDKGVRYYYGMDVWGQGTTVTVSS VL: DIQMTQSPSSLSASVGDRVTITCRASQGIRNDLGWYQQKPGKAPKRLIYAASSLQSGVPSRFSGSGSGTEFTLTISSLQPEDFATYYCLQHNSYPRTFGQGTKVEIK | 2 | No Activation | – | – | – |
| H2aM9228N: anti-APLNR antibody, HCVR/LCVR SEQ ID NOs 66/74, mouse IgG2a Fc (antibody, V domains shown, mouse IgG2a Fc) VH: EVQLVESGGGLVQPGGSLRLSCAASGFTFSNYWMSWVRLAPGKGLEWVANIKQDGSERYYVGSVKGRFTISRGDAKNSLYLQMNSLRAEDTAVYYCARDRFGYSAFDKGVRYYYGMDVWGQGTTVTVSS VL: DIQMTQSPSSLSASVGDRVTITCRASQGIRNDLGWYQQKPGKAPKRLIYAASSLQSGVPSRFSGSGSGTEFTLTISSLQPEDFATYYCLQHNSYPRTFGQGTKVEIK | 3 | No Activation | – | – | – |
| H4H9113P: anti-APLNR antibody, HCVR/LCVR SEQ ID NOs 210/218, human IgG4 Fc (antibody, V domains shown, human IgG4 Fc) VH: QVQLVQSGAEVKKPGASVEVSCKASGYTFTDYYIHWIRQAPGQGLEWMGWINPDSGRTNYAQKFQVRVTMTRDTSITTAYMELNRLKSDDTAVYYCARGPLRGYSGYDFFDYWGQGTLVTVSS VL: DIQMTQSPSSLSASVGDRVTITCRASQGIRNDLGWYQQKPGKAPNRLIYAASSLQSGVPSRFSGSGSGTEFTLTISSLHPEDFATYSCLQHNSFPLTFGGGTKVEIK | – | – | No Activation | did not demonstrate any measurable blockade | – |
| H2aM9230N: anti-APLNR antibody, HCVR/LCVR SEQ ID NOs 82/90, mouse IgG2a Fc (antibody, V domains shown, mouse IgG2a Fc) VH: EVQLVESGGGLVQPGGSLRLSCAASGFTFSSFWMSWVRQVPGKGLQWVANIKQDGSEKYYVDSVKGRFTISRDNAKNSLYLQMNSLRAEDTAVYYCARDRFGYSVYDKGVRYYYGMDVWGQGTTVTVSS VL: DIQMTQSPSSLSVSVGDRVTITCRASQGIRNDLGWYQQKPGKAPKRLIYAASSLQSGVPSRFSGSGSGTEFTLTISGLQSEDFATYYCLQHKSYPRTFGQGTKVEIK | 3 | No Activation | – | – | – |
| H4H9104P: anti-APLNR antibody, HCVR/LCVR SEQ ID NOs 178/186, human IgG4 Fc (antibody, V domains shown, human IgG4 Fc) VH: QVQLVESGGDLVKPGGSLRLSCAASGFTFSDYYMNWIRQAPGKGLEWVSYISSSGSTIHYADSVKGRFTISRDNAKNLVYLRMNSLRAEDTAVYFCAREREVHDYSDPYFFFYGMDVWGQGTTVTVSS VL: DIQMTQSPSSVSASVGDRVTITCRASQDVSSWLAWYQHKPGKAPKLLIFAASSLQSGVPSRFSGSGSGTDFTLTISSLQSEDFATYYCQQANSFPLTFGGGTKVEIK | – | – | No Activation | did not demonstrate any measurable blockade | – |
| H4H9101P: anti-APLNR antibody, HCVR/LCVR SEQ ID NOs 146/154, human IgG4 Fc (antibody, V domains shown, human IgG4 Fc) VH: QVQLVQSGAEVKKPGASVEVSCKASGYTFTDYYIHWIRQAPGQGLEWMGWINPDSGRTNYAQKFQVRVTMTRDTSITTAYMELNRLKSDDTAVYYCARGPLRGYSGYDFFDYWGQGTLVTVSS VL: DIQLTQSPSFLSASVGDRVTITCWASQGISSYLAWYQQKPGKAPKLLIYAASTLQSGVPSRFSGSGSGTEFTLTISSLQPEDFASYFCQQLNSNPRTFGQGTKVEIK | – | – | No Activation | did not demonstrate any measurable blockade | – |
| H4H9112P: anti-APLNR antibody, HCVR/LCVR SEQ ID NOs 194/202, human IgG4 Fc (antibody, V domains shown, human IgG4 Fc) VH: QVQLVQSGAEVKKPGASVEVSCKASGYTFTDYYIHWIRQAPGQGLEWMGWINPDSGRTNYAQKFQVRVTMTRDTSITTAYMELNRLKSDDTAVYYCARGPLRGYSGYDFFDYWGQGTLVTVSS VL: DIQMTQSPSSLSAFVGDRVTITCRASQSISSYLNWYQQKPGKAPKLLIYTASTLQRGVPSRFRGSGSGTDFTLTISSLQPEDFATYYCHQTYSIPITFGQGTRLEIK | – | – | No Activation | did not demonstrate any measurable blockade | – |
| H1M9207N: anti-APLNR antibody, HCVR/LCVR SEQ ID NOs 2/10, mouse IgG1 Fc (antibody, V domains shown, mouse IgG1 Fc) VH: EVQLVESGGGLAQPGGSLRLSCAASGFTFSNYWMSWVRQAPGKGLEWVANIKQDGSEKYYLESVKGRFTISRDNAKNLLYLQMNSLRAEDTAVFYCARPGLLRFLEPGRRYYSGMNVWGQGTTVTVSS VL: DIQLTQSPSFLSASVGDRVTITCWASQGIRSYLAWYQQKPGKAPKLLIYAASTLQSGVPSRFSGSGSGTEFTLTISSLQPEDFATYYCQQFNSYPWTFGQGTKVEIK | 4 | No Activation | – | – | – |
| H4H9103P: anti-APLNR antibody, HCVR/LCVR SEQ ID NOs 162/170, human IgG4 Fc (antibody, V domains shown, human IgG4 Fc) VH: EVQLVESGGGLVQPGRSLRLSCAASGFTFDDYAMHWVRQVPGKGLEWVSGITWNSGDIGYADSVKGRFTISRDNAKNSLYLQMNSLRAEDTALYYCTKDKDSSGYYGIDVWGQGTTVTVSS VL: DIQMTQSPSSVSASVGDRVTITCRASQGIRTWLAWYQQKPGKAPKLLIYAASSLQSGVPSRFSGSESGTDFTLTISSLQPEDFATYYCQQANSFPFTFGPGTKVDIK | – | – | No Activation | did not demonstrate any measurable blockade | – |
